Experimental data taken from the supplement of paper PMC10126150.
± gives the standard deviation of the averaged measurements.

Test system: ATP
Assay: switch fluorescence ratio, 500 uM ATP over buffer (Cy3 cluster intensity, sum of 5 cycles each) (fold (ratio)); higher = stronger signal-on switching upon ATP binding; sequences stand for … in TCGTCGGCAGCGTCAGATGTGTATAAGAGACAGTTTTTTTTTTTTTTTTTTTTTTTTT…TC
Conditions: aptamer strand: ATP DNA aptamer (quencher-CACCTGGGGGAGTATTGCGGAGGAAGG + anchor), 100 nM annealed; ATP concentration: 500 uM
Outline: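 Per cluster, summed Cy3 intensity from the target cycles was divided by that from the buffer cycles to give the fluorescence ratio, then averaged per switch-domain sequence. Clusters outside 100-1000 RFU were excluded. The Cy3-labelled switching-strand clusters, on a modified Illumina MiSeq flow-cell, were annealed to 100 nM quencher-labelled ATP aptamer and imaged in selection buffer, then after 15 min with 500 uM ATP at 22 °C, for five cycles with NaOH stripping and re-annealing between them.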
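Further: ATP exposure 15 min at 22 °C before imaging.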

Sequence	switch fluorescence ratio
ATGTCATTGG	1.01 ± 0.024
GGAATTGGAT	1 ± 0.025
GTATGAATCG	0.961 ± 0.056
GATAGAGGGA	0.999 ± 0.01
GAAAGGGGGG	1.04 ± 0.098
ATGCTGGGGG	0.994 ± 0.013
GGGCCCGGCA	0.9814 ± 0.0049
TAGTACGGGC	1 ± 0.044
GATTTGTTAG	0.977 ± 0.022
GCTTGTCGGC	0.99 ± 0.035
GCATTGGATA	1 ± 0.014
AATACCTGAA	1.17 ± 0.017
GGGGTAGTTG	0.99 ± 0.028
GGTTATGCGG	1.01 ± 0.046
GGGTACAGGA	0.99686 ± 5.1e-05
ATTTTATTTT	1.01 ± 0.029
TTCGGGGGCT	1.01 ± 0.071
ACTCTGGCGT	1.08 ± 0.024
ATATAGTTGT	0.999 ± 0.016
TTTAGAGCTT	1.02 ± 0.024
CGCGGTCAAC	1.35 ± 0.2
GGGTGGAGGA	1.008 ± 0.0038
TACTTTTTAT	1.01 ± 0.018
TTCGGAATTT	0.9882 ± 0.0083
GGTGAAGGGG	1.15 ± 0.27
GTAATTTATG	1.01 ± 0.02

Sequence	switch fluorescence ratio
GCTTGTTGTT	0.995 ± 0.017
GGGTTTTTCT	0.99 ± 0.036
AAGCGTAGAT	1.009 ± 0.0074
AATTTCGCAA	3.4 ± 1.3
GACTGTGATG	0.9708 ± 0.0097
TTATTCCCAG	1.016 ± 0.0014
AAATTGGTCC	1.02 ± 0.016
GCGATGCCTG	0.973 ± 0.071
TTAGTATCGA	0.966 ± 0.029
TGGGGGATGG	0.996 ± 0.057
GCGAGTATGC	1.03 ± 0.02
GGATGGCGGT	0.9846 ± 0.0069
CCCGGCGAGT	1.08 ± 0.038
TGTTGTATGT	0.994 ± 0.015
CGGACTGTCA	1.02 ± 0.016
GCATGGTGGC	1.013 ± 0.0028
AGAGTGGCAA	1.04 ± 0.016
TGGGAGGTTA	0.965 ± 0.025
TGGTTTCGTG	1.01 ± 0.023
CTCAGAATAT	1.046 ± 0.0086
TTGGTATAGC	1.003 ± 0.01
AGTAATTTTA	1.04 ± 0.04
ACGCTTAGAC	1.66 ± 0.24
TTTTTGGTTA	1 ± 0.016
GCGGTTTTGT	0.998 ± 0.029
GTTTTTTTTG	0.999 ± 0.029

Sequence	switch fluorescence ratio
GGATTTATTG	1.02 ± 0.022
TTGTTGGGG	0.994 ± 0.03
ACGGGGTGTT	1 ± 0.04
TGGGGCGCTA	1.07 ± 0.11
TTTTACGATG	1 ± 0.012
AGGGTGAAAG	0.992 ± 0.023
AGTGTTTAAA	0.969 ± 0.025
CTAGGGTTAT	1.006 ± 0.0025
TTATCGTGTC	1.02 ± 0.023
TAAAACGATC	0.966 ± 0.036
TCAGGGTTGT	1.02 ± 0.031
GATGGTAACT	0.984 ± 0.017
CTGTGTAGTG	0.9954 ± 0.002
CATGGTAAAT	0.984 ± 0.018
CATTTCCTGG	1.01 ± 0.044
TTCGTATCGG	0.978 ± 0.012
AAGTTTTATC	0.989 ± 0.021
GGTGGAGGAA	1.027 ± 0.0053
TTCCCACTAC	2.63 ± 0.086
CGTTGCTCCC	1.3 ± 0.49
ATGATGGCAA	1.03 ± 0.027
CAATTCCGTG	1.02 ± 0.022
TATTATTGGA	1 ± 0.042
TGGGAAAGTC	0.993 ± 0.026
GGGTGTGAGT	1.03 ± 0.018
CGGCTCTCTT	1.009 ± 0.0017

Sequence	switch fluorescence ratio
GTTTTTGGTT	1 ± 0.028
GGGATAATTA	1.01 ± 0.029
TCATATAATA	1.01 ± 0.018
ATGCGGGGGG	1.01 ± 0.021
GAGGTTTGGC	0.988 ± 0.051
TGAAATAGGT	0.99 ± 0.036
CGTCCTGGGG	1.12 ± 0.048
GTAGAAAAAA	1.002 ± 0.01
GGGGATGTGC	1.01 ± 0.04
CGCCATGGGT	0.9915 ± 0.0027
GGGGAAAACT	1.01 ± 0.022
TGGAGGTTAT	0.9935 ± 0.0081
AGAGGCGTAT	0.974 ± 0.011
GGTGCTTGGT	0.989 ± 0.018
TGTTCCAATA	1.03 ± 0.024
TTTACAGCTT	0.987 ± 0.027
AGCAGGGCTG	0.99566 ± 0.00073
TAACTGGGTT	1.02 ± 0.036
TCTCGGAAGA	1.01 ± 0.022
GGGGTTCGTC	1 ± 0.044
TCTCCTTTTT	1.02 ± 0.053
AACAAGTAAT	1 ± 0.018
TTATCATACG	1.03 ± 0.024
AAGGGAAGGG	0.998 ± 0.025
CTGTTTTTTT	0.981 ± 0.039
TATTCCTTTT	1.01 ± 0.013

Sequence	switch fluorescence ratio
CTTATTAGGG	0.986 ± 0.021
GTGGGCGGGC	1.02 ± 0.093
AGTGAGAGGA	0.9804 ± 0.007
ACAGGATGTT	1.01 ± 0.027
TGTTTTAAAT	0.978 ± 0.03
CGCTTAGTGG	1.03 ± 0.0027
CTAGGATTGA	0.992 ± 0.041
GGGATAGGCA	1.01 ± 0.039
ATAACCAGTT	0.988 ± 0.014
TTTCGGATTC	1.08 ± 0.059
TAAAGGAATT	1.05 ± 0.03
ATGGGAAAAA	1.01 ± 0.014
AGATTACGAG	1.02 ± 0.026
GTAGTCTAGA	0.965 ± 0.024
AGGTCTTATT	1.08 ± 0.094
CGGTCAAGGT	1.003 ± 0.0076
TGATATTTGT	1.01 ± 0.027
TCGTTACCCT	1.02 ± 0.011
TATGTAAATT	1.01 ± 0.012
TTTTGCGCCG	1.06 ± 0.06
ATGTTTGATG	0.998 ± 0.024
AAAAATCGGT	0.996 ± 0.044
TGTTTATAAT	0.99 ± 0.013
TTATGATAGG	1.016 ± 0.0079
TTTGATGCGT	1.018 ± 0.0095
TATTACGGCG	1.02 ± 0.03

Sequence	switch fluorescence ratio
TTTTTACCTT	1.07 ± 0.046
GTGGTTTGGG	0.988 ± 0.06
TTTTATGAAG	1.04 ± 0.02
TTGGGTCCAA	0.983 ± 0.017
TTTTTATCTG	0.9654 ± 0.002
AGGAATATAC	1.11 ± 0.066
AATAGTTCTG	0.951 ± 0.043
TTAGAAGGTG	1.16 ± 0.078
TTTTTTCGGC	0.988 ± 0.022
GGGCGTATGT	0.981 ± 0.023
CCCGGGGGAA	1.03 ± 0.014
CGTTTAGTCA	1.01 ± 0.023
TTTTCGGTTT	1 ± 0.051
GATCACTCGT	1 ± 0.048
TAATTACTCA	1.045 ± 0.01
TTACTATTTG	0.961 ± 0.052
TTCTGTTAAC	1.01 ± 0.025
TGGGGTACGA	1.01 ± 0.026
GTTAATTTGC	0.984 ± 0.04
TAGTTGTTTG	0.9989 ± 0.0085
TTATGGAATT	1.01 ± 0.044
AATTTACGTG	1.06 ± 0.011
TATTGAGACC	1.03 ± 0.036
